Test results reported in the RNAGym collection of RNA variant scans (doi:10.7554/elife.80360).

B1: CPEB3 Ribozyme (parent)
chain: GGGGGCCACAGCAGAAGCGUUCACGUCGCGGCCCCUGUCAGAUUCUGGUGAAUCUGCGAAUUCUGCUGU

Variants of: B1
Experiment: self-cleavage, relative activity (ratio to wild type); higher = more cleavage; co-transcriptional

Point of comparison: GGGGGCCACAGCAGAAGCGUUCACGUCGCGGACCCUGCCAGAUUCUGGUGAAUCUGCGAAUUCUGCUGU, self-cleavage 0.504. Against it:
- GGGGGCCACAGCAGAAGCGUUCACGUCGCGGACCCUGGCAGAUUCUGGUGAAUCUGCGAAUUCUGCUGU — lower, 0.271
- GGGGGCCACAGCAGAAGCGUUCACGUCGCGGACCCUGUCAGAUUGUGGUGAAUCUGCGAAUUCUGCUGU — higher, 0.667
- GGGGGCCACAGCAGAAGCGUUCACGUCGCGGACCCUGUCAGAUUCUGCUGAAUCUGCGAAUUCUGCUGU — higher, 0.862
- GGGGGCCACAGCAGAAGCGUUCACGUCGCGGACCCUGUCAGAUUCUGAUGAAUCUGCGAAUUCUGCUGU — higher, 0.875
- GGGGGCCACAGCAGAAGCGUUCACGUCGCGGACCCUGUCAGAUUCUGUUGAAUCUGCGAAUUCUGCUGU — higher, 0.901
- GGGGGCCACAGCAGAAGCGUUCACGUCGCGGACCCUGUCAGAUUCUGGUGAAUCUGCGAAUCCUGCUGU — lower, 0.339
- GGGGGCCACAGCAGAAGCGUUCACGUCGCGGACCCUGUCAGAUUCUGGUGAAUCUGGGAAUUCUGCUGU — lower, 0.27
- GGGGGCCACAGCAGAAGCGUUCACGUCGCGGACCCUGUCAGAUUCUGGUGAAUCUGUGAAUUCUGCUGU — lower, 0.25
- GGGGGCCACAGCAGAAGCGUUCACGUCGCGGACCCUGUCAGAUUCUGGUGAAUGUGCGAAUUCUGCUGU — lower, 0.333
- GGGGGCCACAGCAGAAGCGUUCACGUCGCGGACCCUGUCAGAUUCUGGUGAAUUUGCGAAUUCUGCUGU — higher, 0.803
- GGGGGCCACAGCAGAAGCGUUCACGUCGCGGACCCUGUCAGAUUCUGGUGAAUAUGCGAAUUCUGCUGU — lower, 0.328
- GGGGGCCACAGCAGAAGCGUUCACGUCGCGGACCCUGUCAGAUUCUGGUGAACCUGCGAAUUCUGCUGU — lower, 0.455
- GGGGGCCACAGCAGAAGCGUUCACGUCGCGGACCCUGUCAGAUUCUGGUGAAGCUGCGAAUUCUGCUGU — lower, 0.419
- GGGGGCCACAGCAGAAGCGUUCACGUCGCGGACCCCGUCAGAUUCUGGUGAAUCUGCGAAUUCUGCUGU — higher, 0.593
- GGGGGCCACAGCAGAAGCGUUCACGUCGCGGACCCAGUCAGAUUCUGGUGAAUCUGCGAAUUCUGCUGU — lower, 0.275
- GGGGGCCACAGCAGAAGCGUUCACGUCGCGGGCCCUGUCGGAUUCUGGUGAAUCUGCGAAUUCUGCUGU — lower, 0.442
- GGGGGCCACAGCAGAAGCGUUCACGUCGCGGGCCCUGUCCGAUUCUGGUGAAUCUGCGAAUUCUGCUGU — lower, 0.308
- GGGGGCCACAGCAGAAGCGUUCACGUCGCGGACCCUGUCAGAUUCUGGUGAAUCUGCGAAUUCUGCCGU — higher, 0.882
- GGGGGCCACAGCAGAAGCGUUCACGUCGCGGACCCUGUCAGAUUCUGGUGAAUCUGCGAAUUCUGCAGU — higher, 0.956
- GGGGGCCACAGCAGAAGCGUUCACGUCGCGGACCCUGUCAGAUUCUGGUGAAUCUGCGAAUUCUGCGGU — higher, 0.936
- GGGGGCCACAGCAGAAGCGUUCACGUCGCGGACCCUGUCAGAUUCUGGAGAAUCUGCGAAUUCUGCUGU — higher, 0.871
- GGGGGCCACAGCAGAAGCGUUCACGUCGCGGACCCUGUCAGAUUCUGGCGAAUCUGCGAAUUCUGCUGU — higher, 0.704
- GGGGGCCACAGCAGAAGCGUUCACGUCGCGGACCCUGUAAGAUUCUGGUGAAUCUGCGAAUUCUGCUGU — lower, 0.434
- GGGGGCCACAGCAGAAGCGUUCACGUCGCGGACCCUGUUAGAUUCUGGUGAAUCUGCGAAUUCUGCUGU — lower, 0.388
- GGGGGCCACAGCAGAAGCGUUCACGUCGCGGAACCUGUCAGAUUCUGGUGAAUCUGCGAAUUCUGCUGU — lower, 0.308
- GGGGGCCACAGCAGAAGCGUUCACGUCGCGGAUCCUGUCAGAUUCUGGUGAAUCUGCGAAUUCUGCUGU — lower, 0.231
- GGGGGCCACAGCAGAAGCGUUCACGUCGCGGACACUGUCAGAUUCUGGUGAAUCUGCGAAUUCUGCUGU — lower, 0.229
- GGGGGCCACAGCAGAAGCGUUCACGUCGCGGACUCUGUCAGAUUCUGGUGAAUCUGCGAAUUCUGCUGU — lower, 0.362
- GGGGGCCACAGCAGAAGCGUUCACGUCGCGGACCCUGUCAGAUUCUGGUGAAUCUGCCAAUUCUGCUGU — higher, 0.841
- GGGGGCCACAGCAGAAGCGUUCACGUCGCGGACCCUGUCAGAUUCUGGUGAAUCUGCAAAUUCUGCUGU — higher, 0.693
- GGGGGCCACAGCAGAAGCGUUCACGUCGCGGACCCUGUCAGAUUCUGGUGAAUCUGCGCAUUCUGCUGU — lower, 0.372
- GGGGGCCACAGCAGAAGCGUUCACGUCGCGGACCCUGUCAGAUUCUGGUGAAUCUGCGGAUUCUGCUGU — higher, 0.61
- GGGGGCCACAGCAGAAGCGUUCACGUCGCGGACCCUGUCAGAAUCUGGUGAAUCUGCGAAUUCUGCUGU — lower, 0.345
- GGGGGCCACAGCAGAAGCGUUCACGUCGCGGACCCUGUCAGACUCUGGUGAAUCUGCGAAUUCUGCUGU — lower, 0.441
- GGGGGCCACAGCAGAAGCGUUCACGUCGCGGACCCUGUCAGAUUCUGGUGAAUCUGCGAAUUCGGCUGU — higher, 0.726
- GGGGGCCACAGCAGAAGCGUUCACGUCGCGGACCCUGUCAGAUUCUGGUGAAUCUGCGAAUUCCGCUGU — lower, 0.499
- GGGGGCCACAGCAGAAGCGUUCACGUCGCGGACCCUGUCAGAUUCUGGUGAAUCUGCGAAUUCAGCUGU — higher, 0.519
- GGGGGCCACAGCAGAAGCGUUCACGUCGCGGACCCUGUCAGAUUCUGGUGAAUCUGCGAAUUCUGCUAU — higher, 0.994
- GGGGGCCACAGCAGAAGCGUUCACGUCGCGGACCCUGUCAGAUUCUGGUGAAUCUGCGAAUUCUGCUUU — higher, 1.01
- GGGGGCCACAGCAGAAGCGUUCACGUCGCGGACCCUGUCAGAUUCUGGUGAAUCUGCGAAUUCUGUUGU — higher, 0.903
- GGGGGCCACAGCAGAAGCGUUCACGUCGCGGACCCUGUCAGAUUCUGGUGAAUCUGCGAAUUCUGAUGU — higher, 0.698
- GGGGGCCACAGCAGAAGCGUUCACGUCGCGGACCCUGUCGGAUUCUGGUGAAUCUGCGAAUUCUGCUGU — higher, 0.711
- GGGGGCCACAGCAGAAGCGUUCACGUCGCGGACCCUGUCUGAUUCUGGUGAAUCUGCGAAUUCUGCUGU — lower, 0.376
- GGGGGCCACAGCAGAAGCGUUCACGUCGCGGACCCUGUCCGAUUCUGGUGAAUCUGCGAAUUCUGCUGU — lower, 0.321
- GGGGGCCACAGCAGAAGCGUUCACGUCGCGGACCCUGUCAGUUUCUGGUGAAUCUGCGAAUUCUGCUGU — the same, 0.504
- GGGGGCCACAGCAGAAGCGUUCACGUCGCGGACCCUGUCAGCUUCUGGUGAAUCUGCGAAUUCUGCUGU — lower, 0.342
- GGGGGCCACAGCAGAAGCGUUCACGUCGCGGACCCUGUCAGAUUCUGGUGAAUCUGCGAAUUCUACUGU — higher, 0.638
- GGGGGCCACAGCAGAAGCGUUCACGUCGCGGGCCCUGUCAGAUUCUGGUGAAUCUGCGAAUUCUGCUGU — higher, 0.584
- GGGGGCCACAGCAGAAGCGUUCACGUCGCGGACCAUGUCAGAUUCUGGUGAAUCUGCGAAUUCUGCUGU — lower, 0.26
- GGGGGCCACAGCAGAAGCGUUCACGUCGCGGACCCUGUCAGAUUCUGGUGGAUCUGCGAAUUCUGCUGU — higher, 0.521
- GGGGGCCACAGCAGAAGCGUUCACGUCGCGGACCCUGUCAGAUUCUGGUGAAUCUGCGAUUUCUGCUGU — lower, 0.257
- GGGGGCCACAGCAGAAGCGUUCACGUCGCGGACCCUGUCAGAUUCUGGUGAAUCUGCGACUUCUGCUGU — lower, 0.27
- GGGGGCCACAGCAGAAGCGUUCACGUCGCGGACCCUGUCAGAUUCUAGUGAAUCUGCGAAUUCUGCUGU — higher, 0.877
- GGGGGCCACAGCAGAAGCGUUCACGUCGCGGACCCUGUCAGAUUCUCGUGAAUCUGCGAAUUCUGCUGU — higher, 0.869
- GGGGGCCACAGCAGAAGCGUUCACGUCGCGGACCCUGUCAGAUUCUGGUGAAUCUGCGAAGUCUGCUGU — lower, 0.421
- GGGGGCCACAGCAGAAGCGUUCACGUCGCGGACCCUGUCAGAUUCUGGUGAAUCUGCGAACUCUGCUGU — lower, 0.365
- GGGGGCCACAGCAGAAGCGUUCACGUCGCGGACCCUGUCAGAUUCUGGUGAAUCUGCGAAAUCUGCUGU — lower, 0.406
- GGGGGCCACAGCAGAAGCGUUCACGUCGCGGACCCUGUCAGAUUCCGGUGAAUCUGCGAAUUCUGCUGU — higher, 0.776
- GGGGGCCACAGCAGAAGCGUUCACGUCGCGGACCCUGUCAGAUUCGGGUGAAUCUGCGAAUUCUGCUGU — higher, 0.729
- GGGGGCCACAGCAGAAGCGUUCACGUCGCGGACCCUGUCAGAUUCAGGUGAAUCUGCGAAUUCUGCUGU — higher, 0.574
- GGGGGCCACAGCAGAAGCGUUCACGUCGCGGACCCUGUCAGAUUCUGGUGAAUCUGCGAAUUGUGCUGU — lower, 0.344
- GGGGGCCACAGCAGAAGCGUUCACGUCGCGGACCCUGUCAGAUUCUGGUGAAUCUGCGAAUUUUGCUGU — higher, 0.772
- GGGGGCCACAGCAGAAGCGUUCACGUCGCGGACCCUGUCAGAUUCUGGUGAAUCCGCGAAUUCUGCUGU — lower, 0.393
- GGGGGCCACAGCAGAAGCGUUCACGUCGCGGACCCUGUCAGAUUCUGGUGAAUCAGCGAAUUCUGCUGU — higher, 0.622
- GGGGGCCACAGCAGAAGCGUUCACGUCGCGGACCCUGUCAGAUUCUGGUGAAUCGGCGAAUUCUGCUGU — lower, 0.451
- GGGGGCCACAGCAGAAGCGUUCACGUCGCGGACCCUGUCAGAUUCUGGUGAAUCUGCGAAUUCUGCUGC — higher, 1.03
- GGGGGCCACAGCAGAAGCGUUCACGUCGCGGACCCUGUCAGAUUCUGGUAAAUCUGCGAAUUCUGCUGU — higher, 0.693
- GGGGGCCACAGCAGAAGCGUUCACGUCGCGGACCCUGUCAGAUUCUGGUCAAUCUGCGAAUUCUGCUGU — higher, 0.716
- GGGGGCCACAGCAGAAGCGUUCACGUCGCGGACCCUGUCAAAUUCUGGUGAAUCUGCGAAUUCUGCUGU — lower, 0.344
- GGGGGCCACAGCAGAAGCGUUCACGUCGCGGACCCUGUCAUAUUCUGGUGAAUCUGCGAAUUCUGCUGU — lower, 0.362
- GGGGGCCACAGCAGAAGCGUUCACGUCGCGGACCCUGUCAGAUACUGGUGAAUCUGCGAAUUCUGCUGU — lower, 0.357
- GGGGGCCACAGCAGAAGCGUUCACGUCGCGGACCCUGUCAGAUGCUGGUGAAUCUGCGAAUUCUGCUGU — lower, 0.469
- GGGGGCCACAGCAGAAGCGUUCACGUCGCGGACCCUCUCAGAUUCUGGUGAAUCUGCGAAUUCUGCUGU — lower, 0.336
- GGGGGCCACAGCAGAAGCGUUCACGUCGCGGACCCUGUCAGAUUCUGGUGAAUCUACGAAUUCUGCUGU — higher, 0.674
- GGGGGCCACAGCAGAAGCGUUCACGUCGCGGACCCUGUCAGAUUCUGGUGAAUCUUCGAAUUCUGCUGU — higher, 0.683
- GGGGGCCACAGCAGAAGCGUUCACGUCGCGGACCCUGUCAGAUUCUGGUGACUCUGCGAAUUCUGCUGU — lower, 0.374
- GGGGGCCACAGCAGAAGCGUUCACGUCGCGGACCCUGUCAGAUUCUGGUGAUUCUGCGAAUUCUGCUGU — higher, 0.645
